Like-named read-outs stand apart in the source and are kept apart here. One block for each molecule: values may come before it. No end group written: not given here. 5,6‑carboxyfluorescein = 5,6-carboxyfluorescein
T1: rat His-Gαi3 (rat, UniProt P08753 1-354)
T1 chain: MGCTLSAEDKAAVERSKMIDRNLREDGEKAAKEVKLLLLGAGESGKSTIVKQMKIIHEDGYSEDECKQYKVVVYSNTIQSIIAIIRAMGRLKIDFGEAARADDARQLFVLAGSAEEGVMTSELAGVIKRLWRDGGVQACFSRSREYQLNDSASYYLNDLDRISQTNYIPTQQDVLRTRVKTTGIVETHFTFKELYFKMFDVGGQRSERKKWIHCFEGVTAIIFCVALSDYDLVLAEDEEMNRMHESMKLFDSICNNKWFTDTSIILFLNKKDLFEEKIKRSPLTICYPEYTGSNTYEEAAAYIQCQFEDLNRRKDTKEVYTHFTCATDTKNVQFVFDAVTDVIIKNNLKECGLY

B1: fluorescein-labeled GIV 1671–1696 peptide (peptide)
peptide: {5,6‑carboxyfluorescein}-KTGSPGSEVVTLQQFLEESNKLTSVQ-NH2
notes: Made on MBHA resin, which would leave a C-terminal amide; source: synthetic peptide (Boc-SPPS, RP-HPLC purified)
B2: fluorescently-labeled GIV 1671–1701 peptide (peptide)
peptide: {5,6‑carboxyfluorescein}-KTGSPGSEVVTLQQFLEESNKLTSVQIKSSS
notes: as for B1
B3: fluorescein-labeled GIV 1671–1689 peptide (peptide)
peptide: {5,6‑carboxyfluorescein}-KTGSPGSEVVTLQQFLEES-NH2
notes: as for B1
B4: untagged rat Gαi3 (natural protein, UniProt P08753 1-354, looked up)
chain: T1 chain
notes: from a pET28b plasmid containing a thrombin cleavage site; also called untagged Gαi3; unlabeled Gαi3; source: E. coli BL21(DE3); rat His-Gαi3 cleaved with agarose-immobilized thrombin, passed over HisPur Cobalt beads, gel filtration (Superdex S200)
B5: unlabeled GIV 1671–1701 peptide (peptide)
peptide: KTGSPGSEVVTLQQFLEESNKLTSVQIKSSS
notes: as for B1
B6: GST-fused GIV 1671–1701 (domain or fragment, human)
chain: B5 peptide
notes: source: purified
B7: fluorescein-labeled GIV 1671–1705 peptide (peptide)
peptide: {5,6‑carboxyfluorescein}-KTGSPGSEVVTLQQFLEESNKLTSVQIKSSSQENL
notes: Made on MBHA resin, which would leave a C-terminal amide; also called fluorescently-labeled GIV peptide; source: synthetic peptide (Boc-SPPS, RP-HPLC purified)
B8: GST-GIV 1671–1696 (domain or fragment, human)
chain: KTGSPGSEVVTLQQFLEESNKLTSVQ
notes: source: purified
B9: human His-GIV-CT (1660–1870) (domain or fragment, UniProt Q3V6T2-3 1660-1870, looked up)
chain: SETLESRHHKIKTGSPGSEVVTLQQFLEESNKLTSVQIKSSSQENLLDEVMKSLSVSSDFLGKDKPVSCGLARSVSGKTPGDFYDRRTTKPEFLRPGPRKTEDTYFISSAGKPTPGTQGKIKLVKESSLSRQSKDSNPYATLPRASSVISTAEGTTRRTSIHDFLTKDSRLPISVDSPPAAADSNTTAASNVDKVQESRNSKSRSREQQSS
notes: also called His-tagged GIV 1660–1870; source: E. coli BL21(DE3), purified (HisPur Cobalt resin, dialysed against PBS)
B10: GST-GIV 1671–1755 (domain or fragment, human, UniProt Q3V6T2-3 1671-1755, looked up)
chain: KTGSPGSEVVTLQQFLEESNKLTSVQIKSSSQENLLDEVMKSLSVSSDFLGKDKPVSCGLARSVSGKTPGDFYDRRTTKPEFLRP
notes: source: E. coli BL21(DE3), purified (Glutathione Agarose)
B11: GST-GIV 1671–1689 (domain or fragment, human)
chain: KTGSPGSEVVTLQQFLEES
notes: source: purified
B12: GST-GIV 1671–1705 (domain or fragment, human)
chain: KTGSPGSEVVTLQQFLEESNKLTSVQIKSSSQENL
notes: limits not spelled out in the text for this one; also called GST-fused GIV truncation construct of 35 amino acids; source: purified

What was measured:
rat His-Gαi3 [1] = molecular target: T2, rat His-Gαi3 (Rattus norvegicus, UniProt P08753); experiment: fluorescence polarization competition; type: binding
T2 construct: gene Gnai3

rat GST-Gαi3 [2] = molecular target: T3, rat GST-Gαi3 (Rattus norvegicus, UniProt P08753); experiment: AlphaScreen protein-protein binding inhibition; conditions: displacement of His-GIV-CT 1660-1870 (75 nM each protein); GDP 30 µM, 5 mM MgCl2, pH 7.4, room temperature
T3 construct: gene Gnai3

human Gαi3 = molecular target: T4, human Gαi3 (Homo sapiens, UniProt P08754); experiment: 1H-15N TROSY NMR titration, chemical shift perturbation; type: binding; conditions: GDP-bound, pH 7.0, 30 °C, 10 mM MgCl2; site SwII/α3/W258 region
T4 construct: gene GNAI3

rat GST-Gαi3 [3] = molecular target: T3, rat GST-Gαi3; experiment: AlphaScreen protein-protein binding inhibition; conditions: displacement of His-GIV-CT 1660-1870 (75 nM each protein); GDP 30 µM, 5 mM MgCl2, pH 7.4, room temperature; remark: listed apart in the source
rat His-Gαi3 [4] = molecular target: T5, rat His-Gαi3 (rat, UniProt P08753 1-354); experiment: fluorescence polarisation; fluorescently-labeled GIV peptide 25 nM, rat His-Gαi3 titrated 0.125–10 µM, room temperature; 50 mM Tris-HCl pH 7.4, 100 mM NaCl, 0.4% NP-40, 10 mM MgCl2, 5 mM EDTA, 2 mM DTT, 30 µM GDP; one-site binding model; conditions: both partners purified
T5 construct: GDP-loaded in the buffers; Pull-down and FP methods name the rat protein; also called purified His-Gαi3; source: E. coli BL21(DE3), purified (HisPur Cobalt resin, buffer exchange on HiTrap Desalting)

rat His-Gαi3 [5] = molecular target: T1, rat His-Gαi3; experiment: FP
rat His-Gαi3 [6] = molecular target: T5, rat His-Gαi3; experiment: fluorescence polarisation; competition: His-Gαi3 1 µM with fluorescently-labeled GIV 1671–1701 25 nM and increasing unlabeled GIV peptide or His-GIV-CT (0.5–20 µM); buffer with 30 µM GDP; conditions: both partners purified
[7] = molecular target: B9; experiment: AlphaScreen or HTRF; competition: 75 nM His-GIV-CT and 75 nM GST-Gαi3 on beads with increasing untagged Gαi3 in solution; buffer with 30 µM GDP; one-site sigmoidal inhibition curve; conditions: both partners purified
rat His-Gαi3 [8] = molecular target: T5, rat His-Gαi3; experiment: pull-down; 10 µg GST or GST-GIV (~1.25 µM) immobilised on glutathione agarose beads; rat His-Gαi3 0.1–5 µM, 4 h at 4 °C; 50 mM Tris-HCl pH 7.4, 100 mM NaCl, 0.4% NP-40, 10 mM MgCl2, 5 mM EDTA, 2 mM DTT, 30 µM GDP; SDS-PAGE, Coomassie blue; conditions: both partners purified
rat GST-Gαi3 [9] = molecular target: T6, rat GST-Gαi3 (rat, UniProt P08753 1-354); experiment: AlphaScreen or HTRF; His-GIV-CT on nickel-chelate donor beads, GST-Gαi3 on glutathione acceptor beads; 25–100 nM each (75 nM chosen), 10 and 5 µg/ml beads; 50 mM Tris-HCl pH 7.4, 100 mM NaCl, 0.4% NP-40, 5 mM MgCl2, 2 mM DTT, 30 µM GDP; room temperature, 2.5 h; conditions: both partners purified
T6 construct: source: E. coli BL21(DE3), purified (Glutathione Agarose, buffer exchange on HiTrap Desalting)

T3 sequence (Q3V6T2 1660-1870 partner, one chain of several): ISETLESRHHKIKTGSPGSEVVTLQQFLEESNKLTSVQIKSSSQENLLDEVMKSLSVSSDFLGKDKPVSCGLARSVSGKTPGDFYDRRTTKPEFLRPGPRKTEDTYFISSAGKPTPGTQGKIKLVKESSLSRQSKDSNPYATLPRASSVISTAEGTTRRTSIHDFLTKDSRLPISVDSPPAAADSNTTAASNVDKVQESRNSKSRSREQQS
T4 sequence (P08754 whole entry): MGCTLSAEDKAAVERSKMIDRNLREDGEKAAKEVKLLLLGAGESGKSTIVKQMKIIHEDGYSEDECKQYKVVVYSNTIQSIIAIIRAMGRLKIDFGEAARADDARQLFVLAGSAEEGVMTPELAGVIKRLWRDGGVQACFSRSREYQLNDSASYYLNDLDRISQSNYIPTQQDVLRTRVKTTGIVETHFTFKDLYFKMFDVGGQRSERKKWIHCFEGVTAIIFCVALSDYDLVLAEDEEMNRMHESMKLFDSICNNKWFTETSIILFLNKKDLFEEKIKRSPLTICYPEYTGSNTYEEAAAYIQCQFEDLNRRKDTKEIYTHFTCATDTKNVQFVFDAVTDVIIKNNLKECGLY

- IC50 (rat His-Gαi3 [1]; read-out: IC50): ~5 µM
Molecule: O=C(O)C1=CC(=C(c2ccc(O)c(C(=O)O)c2)c2ccc(O)c(C(=O)O)c2)C=CC1=O [ATA]
- % inhibition at 10 μM (rat GST-Gαi3 [2]): ATA and NF023 efficiently inhibited Gαi3-GIV binding as determined by AlphaScreen

- IC50 (rat His-Gαi3 [1]; read-out: IC50): ~5 µM
Molecule: O=C(Nc1cccc(C(=O)Nc2ccc(S(=O)(=O)O)c3cc(S(=O)(=O)O)cc(S(=O)(=O)O)c23)c1)Nc1cccc(C(=O)Nc2ccc(S(=O)(=O)O)c3cc(S(=O)(=O)O)cc(S(=O)(=O)O)c23)c1 [NF023]
- 1H-15N TROSY NMR titration, chemical shift perturbation (human Gαi3): revealed significant Chemical Shift Perturbations (CSP) in only a fraction
- % inhibition at 10 μM (rat GST-Gαi3 [2]): ATA and NF023 efficiently inhibited Gαi3-GIV binding as determined by AlphaScreen

Molecule: O=C(Nc1cc(C(=O)Nc2ccc(S(=O)(=O)O)cc2S(=O)(=O)O)cc(C(=O)Nc2ccc(S(=O)(=O)O)cc2S(=O)(=O)O)c1)Nc1cc(C(=O)Nc2ccc(S(=O)(=O)O)cc2S(=O)(=O)O)cc(C(=O)Nc2ccc(S(=O)(=O)O)cc2S(=O)(=O)O)c1 [NF449]
- IC50 (rat His-Gαi3 [1]; displacement of fluorescein-GIV 1671-1701 peptide (25 nM), GDP 30 µM, 10 mM MgCl2, pH 7.4, room temperature): NF449 inhibits Gαi3-GIV binding with a potency similar to that of NF023

- IC50 (rat His-Gαi3 [1]; read-out: IC50): ~50 µM
Molecule: Cc1ccc(C(=O)Nc2ccc(S(=O)(=O)O)c3cc(S(=O)(=O)O)cc(S(=O)(=O)O)c23)cc1NC(=O)c1cccc(NC(=O)Nc2cccc(C(=O)Nc3cc(C(=O)Nc4ccc(S(=O)(=O)O)c5cc(S(=O)(=O)O)cc(S(=O)(=O)O)c45)ccc3C)c2)c1 [suramin]
- AlphaScreen protein-protein binding inhibition (rat GST-Gαi3 [3]): suramin is a less potent inhibitor than NF023 in the same AlphaScreen

Molecule: B1
- Kd (rat His-Gαi3 [4]): ~0.65 µM

Molecule: B2
- Kd (rat His-Gαi3 [5]): 0.46 µM
- binding result (rat His-Gαi3 [6]): binds

Molecule: B3
- Kd (rat His-Gαi3 [4]): ~1 µM

Molecule: B4
- IC50 [7]: ~1 µM

Molecule: B5
- binding result (rat His-Gαi3 [6]): binds

Molecule: B6
- binding result (rat His-Gαi3 [8]): binds

Molecule: B7
- Kd (rat His-Gαi3 [5]): 0.56 µM
- Kd (rat His-Gαi3 [4]): ~0.5 µM

Molecule: B8
- binding result (rat His-Gαi3 [8]): binds

Molecule: B9
- binding result (rat His-Gαi3 [6]): binds
- binding result (rat GST-Gαi3 [9]): binds

Molecule: B10
- binding result (rat His-Gαi3 [8]): binds

Molecule: B11
- binding result (rat His-Gαi3 [8]): binds

Molecule: B12
- binding result (rat His-Gαi3 [8]): binds

Source: paper PMC5561080, “The Gαi-GIV binding interface is a druggable protein-protein interaction” (Scientific Reports, 2017)
